MuSK phosphorylation (anti-4G10 blot of immunoprecipitated MuSK-Flag) induced by agrin (0.4 µg/ml; 1, 3 and 6 h) in HEK293T cells expressing MuSK-Flag and mutant LRP4-HA, against wild-type LRP4-HA and percent decrease of binding against wild-type LRP4 data for one substance are collected here from publication PMC10462681.

The target in assay [1] is LRP4-HA mutant p.Tyr607Cys (c.1820A > G; LRP4-Mut), expressed in HEK293T cells (human) (UniProt O75096).
Assay [2] has the same target. The experiment in a line: pull-down; LRP4-HA (wild-type or mutated) from transfected HEK293T cells immobilised on beads with anti-HA antibody, incubated with or without recombinant agrin (1 µg/mL); western blot with anti-agrin antibody; N = 3 blots.

In the case of “recombinant rat agrin (neural agrin) (from UniProt P25304 1-1959) (ligand)”, the MuSK phosphorylation (anti-4G10 blot of immunoprecipitated MuSK-Flag) induced by agrin (0.4 µg/ml; 1, 3 and 6 h) in HEK293T cells expressing MuSK-Flag and mutant LRP4-HA, against wild-type LRP4-HA in assay [1] came out at 40 % decrease. In assay [2], the percent decrease of binding against wild-type LRP4 was 80%.
